Experiments:
[1] = test system: HA3-UBQ-GST [GST: P08515]
[2] = test system: purified recombinant linear UB trimers
[3] = test system: purified recombinant linear UB tetramers
[4] = test system: purified recombinant linear UB dimers
[5] = target: K48-tetraubiquitin chains (UniProt P0CG48)
[6] = target: K63-tetraubiquitin chains (UniProt P0CG48)
HA3-SUMO-GST = HA3-SUMO-GST (UniProt P55852)
HA3-RUB-GST = HA3-RUB-GST (UniProt Q9SHE7)

Measured: in vitro deubiquitylation activity

Chain of His-tagged OTU12 (Q9SGA5 whole entry): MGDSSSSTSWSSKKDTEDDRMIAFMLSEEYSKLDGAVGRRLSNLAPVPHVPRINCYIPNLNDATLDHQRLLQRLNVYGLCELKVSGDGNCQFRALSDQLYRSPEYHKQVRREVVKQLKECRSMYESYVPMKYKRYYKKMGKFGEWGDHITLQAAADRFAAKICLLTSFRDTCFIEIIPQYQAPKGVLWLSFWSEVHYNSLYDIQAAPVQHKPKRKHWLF
Chain of K48-tetraubiquitin chains (P0CG48 whole entry, looked up): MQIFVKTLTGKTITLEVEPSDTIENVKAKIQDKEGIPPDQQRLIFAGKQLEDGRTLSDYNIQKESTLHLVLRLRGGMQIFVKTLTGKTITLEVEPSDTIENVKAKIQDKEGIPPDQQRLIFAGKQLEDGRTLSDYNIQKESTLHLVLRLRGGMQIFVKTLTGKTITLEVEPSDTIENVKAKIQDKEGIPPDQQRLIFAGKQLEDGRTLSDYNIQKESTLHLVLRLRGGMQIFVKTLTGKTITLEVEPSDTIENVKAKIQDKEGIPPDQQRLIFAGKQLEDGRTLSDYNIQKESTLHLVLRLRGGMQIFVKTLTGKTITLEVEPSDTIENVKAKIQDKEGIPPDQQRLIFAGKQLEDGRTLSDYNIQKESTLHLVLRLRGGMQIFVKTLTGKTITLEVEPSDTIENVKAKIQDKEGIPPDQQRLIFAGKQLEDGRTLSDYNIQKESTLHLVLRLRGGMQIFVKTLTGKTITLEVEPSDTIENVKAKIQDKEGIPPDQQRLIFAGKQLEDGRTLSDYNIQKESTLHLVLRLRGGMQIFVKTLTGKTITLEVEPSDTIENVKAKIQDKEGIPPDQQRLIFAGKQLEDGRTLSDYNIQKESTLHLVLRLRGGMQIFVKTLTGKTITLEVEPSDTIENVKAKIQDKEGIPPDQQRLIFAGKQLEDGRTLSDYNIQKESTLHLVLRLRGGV
Chain of K63-tetraubiquitin chains (P0CG48 whole entry, looked up): as above
Chain of His-tagged OTU11a (Q0V869 whole entry): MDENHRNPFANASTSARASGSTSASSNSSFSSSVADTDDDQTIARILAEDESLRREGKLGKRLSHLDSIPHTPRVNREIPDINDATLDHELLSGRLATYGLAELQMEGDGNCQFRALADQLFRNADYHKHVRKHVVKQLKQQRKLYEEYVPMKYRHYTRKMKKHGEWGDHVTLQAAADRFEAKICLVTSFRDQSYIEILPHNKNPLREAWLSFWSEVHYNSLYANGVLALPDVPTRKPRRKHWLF

His-tagged OTLD1a
-: all assays above

OTU4d
-: all assays above

His-tagged OTU5b
-: all assays above

His-tagged OTU11a
-: all assays above

His-tagged OTU12
-: all assays above

— patent publication US20150353909
